{
  "source": "patent US20150322137A1",
  "about": "(EVEC, published 2015)",
  "binders": {"B1": {"name": "EV046150 (antibody, human IgG1, kappa, V domains shown)", "VH": "RVQLVQSGAEVKKPGSSVRVSCKASGGTFSNYSISWVRQVPGQGLEWMGRIIPILPLSSYPQQFQGRVAITADKSSTTAYMELSSLRIEDTAIYYCARDALRPEGGYYYYYFDVWGTGTTVTVSS", "VL": "EIELTQSPGTLSLSPGERATLSCRANQIIGDTSLAWYQQKPGQAPRLLIFGASSRATGIPDRFSGSGFGSDFTLTITSLEPEDFAVYYCQQYGSSPTFGQGTKVEIKR"}, "B2": {"name": "EV046116 (antibody, human IgG1, kappa, V domains shown)", "VH": "QVQLQESGPGLVKPSETLSLTCTVSGGSISRDYWSFIRQPAGKGLEWIGRIYHNGDTNYNPSLKSRVTMSQDTSKNQFFLRLRHVTAADTAVYYCAREGSAGTFGQADWGQGTLVIVYS", "VL": "EIVMTQSPATLSVSPGERATLSCRASQSISNNLAWYQQKPGQAPRLLIYGASTRATGIPARFSGGGSGTEFTLTISSLQSEDFAVYYCQQYENWLLYTFGQGTKLEIKR"}},
  "key": {"[1]": {"target": "T1, F protein of human metapneumovirus strain JPS02-76 (type B1), on infectious virus (human metapneumovirus, strain JPS02-76 …, UniProt Q6WB98 19-539)", "assay": "cell-based or functional assay"}, "[2]": {"target": "T2, F protein of human metapneumovirus strain JPS05-21 (type B2), on infectious virus (human metapneumovirus, strain JPS05-21 …)", "assay": "cell-based or functional assay"}, "[3]": {"target": "T3, F protein of human metapneumovirus strain JPS03-180 (type A1), on infectious virus (human metapneumovirus, strain JPS03-180 …)", "assay": "cell-based or functional assay"}, "[4]": {"target": "T2, F protein of human metapneumovirus …", "assay": "cell-based or functional assay", "remark": "listed apart in the source"}, "[5]": {"target": "T3, F protein of human metapneumovirus …", "assay": "cell-based or functional assay", "remark": "listed apart in the source"}, "[6]": {"target": "T4, F protein of human metapneumovirus strain JPS03-178 (type A2), on infectious virus (human metapneumovirus, strain JPS03-178 …)", "assay": "cell-based or functional assay"}, "[7]": {"target": "T1, F protein of human metapneumovirus …", "assay": "cell-based or functional assay", "remark": "listed apart in the source"}, "[8]": {"target": "T2, F protein of human metapneumovirus …", "assay": "cell-based or functional assay", "remark": "listed apart in the source"}, "[9]": {"target": "T3, F protein of human metapneumovirus …", "assay": "cell-based or functional assay", "remark": "listed apart in the source"}, "[10]": {"target": "T4, F protein of human metapneumovirus …", "assay": "cell-based or functional assay", "remark": "listed apart in the source"}, "[11]": {"target": "T1, F protein of human metapneumovirus …", "assay": "cell-based or functional assay", "remark": "listed apart in the source"}, "[12]": {"target": "T2, F protein of human metapneumovirus …", "assay": "cell-based or functional assay", "remark": "listed apart in the source"}, "[13]": {"target": "T3, F protein of human metapneumovirus …", "assay": "cell-based or functional assay", "remark": "listed apart in the source"}, "[14]": {"target": "T4, F protein of human metapneumovirus …", "assay": "cell-based or functional assay", "remark": "listed apart in the source"}, "[15]": {"target": "T1, F protein of human metapneumovirus …", "assay": "cell-based or functional assay", "remark": "listed apart in the source"}, "[16]": {"target": "FP-TM(-)-His, His-Tag-added hMPV (JPS02-76) FP lacking the transmembrane region (amino acid residues 491 to … (human metapneumovirus, strain JPS02-76 …, UniProt Q6WB98 19-490))", "assay": "SPR, Biacore T-200; antibody captured by anti-human IgG, FP-TM(-)-His as analyte"}},
  "data": [
    {"binder": "B1", "values": [
      {"measurement": "IC50, neutralizing activity (hMPV infection of LLC-MK2 cells)", "setting": "[1]", "result": 0.3, "unit": "µg/mL"},
      {"measurement": "IC50, neutralizing activity (hMPV infection of LLC-MK2 cells)", "setting": "[2]", "result": 0.18, "unit": "µg/mL"},
      {"measurement": "IC50, neutralizing activity (hMPV infection of LLC-MK2 cells)", "setting": "[3]", "result": 0.049, "unit": "µg/mL"},
      {"measurement": "IC50, neutralizing activity (hMPV infection of LLC-MK2 cells; GraphPad Prism 6)", "setting": "[4]", "result": 0.202, "unit": "µg/mL"},
      {"measurement": "IC50, neutralizing activity (hMPV infection of LLC-MK2 cells; GraphPad Prism 6)", "setting": "[5]", "result": 0.0618, "unit": "µg/mL"},
      {"measurement": "IC50, neutralizing activity (hMPV infection of LLC-MK2 cells; GraphPad Prism 6)", "setting": "[6]", "result": 0.0298, "unit": "µg/mL"},
      {"measurement": "IC60, neutralizing activity (hMPV infection of LLC-MK2 cells; GraphPad Prism 6)", "setting": "[7]", "result": 0.36, "unit": "µg/mL"},
      {"measurement": "IC60, neutralizing activity (hMPV infection of LLC-MK2 cells; GraphPad Prism 6)", "setting": "[8]", "result": 0.229, "unit": "µg/mL"},
      {"measurement": "IC60, neutralizing activity (hMPV infection of LLC-MK2 cells; GraphPad Prism 6)", "setting": "[9]", "result": 0.0823, "unit": "µg/mL"},
      {"measurement": "IC60, neutralizing activity (hMPV infection of LLC-MK2 cells; GraphPad Prism 6)", "setting": "[10]", "result": 0.0373, "unit": "µg/mL"},
      {"measurement": "IC90, neutralizing activity (hMPV infection of LLC-MK2 cells; GraphPad Prism 6)", "setting": "[11]", "result": 0.663, "unit": "µg/mL"},
      {"measurement": "IC90, neutralizing activity (hMPV infection of LLC-MK2 cells; GraphPad Prism 6)", "setting": "[12]", "result": 0.404, "unit": "µg/mL"},
      {"measurement": "IC90, neutralizing activity (hMPV infection of LLC-MK2 cells; GraphPad Prism 6)", "setting": "[13]", "result": 0.292, "unit": "µg/mL"},
      {"measurement": "IC90, neutralizing activity (hMPV infection of LLC-MK2 cells; GraphPad Prism 6)", "setting": "[14]", "result": 0.101, "unit": "µg/mL"},
      {"measurement": "IC50, cell-to-cell spread inhibitory activity (LLC-MK2 cells stably expressing TMPRSS2)", "setting": "[15]", "result": 0.0166, "unit": "µg/mL"},
      {"measurement": "IC90, cell-to-cell spread inhibitory activity (LLC-MK2 cells stably expressing TMPRSS2)", "setting": "[15]", "result": 0.065, "unit": "µg/mL"}
    ]},
    {"binder": "B2", "values": [
      {"measurement": "IC50, neutralizing activity (hMPV infection of LLC-MK2 cells)", "setting": "[1]", "result": 0.25, "unit": "µg/mL"},
      {"measurement": "IC50, neutralizing activity (hMPV infection of LLC-MK2 cells)", "setting": "[2]", "result": 0.25, "unit": "µg/mL"},
      {"measurement": "IC50, neutralizing activity (hMPV infection of LLC-MK2 cells)", "setting": "[3]", "result": 0.31, "unit": "µg/mL"},
      {"measurement": "IC50, neutralizing activity (hMPV infection of LLC-MK2 cells; GraphPad Prism 6)", "setting": "[4]", "result": 0.279, "unit": "µg/mL"},
      {"measurement": "IC50, neutralizing activity (hMPV infection of LLC-MK2 cells; GraphPad Prism 6)", "setting": "[5]", "result": 0.351, "unit": "µg/mL"},
      {"measurement": "IC50, neutralizing activity (hMPV infection of LLC-MK2 cells; GraphPad Prism 6)", "setting": "[6]", "result": 0.19, "unit": "µg/mL"},
      {"measurement": "IC60, neutralizing activity (hMPV infection of LLC-MK2 cells; GraphPad Prism 6)", "setting": "[7]", "result": 0.497, "unit": "µg/mL"},
      {"measurement": "IC60, neutralizing activity (hMPV infection of LLC-MK2 cells; GraphPad Prism 6)", "setting": "[8]", "result": 0.341, "unit": "µg/mL"},
      {"measurement": "IC60, neutralizing activity (hMPV infection of LLC-MK2 cells; GraphPad Prism 6)", "setting": "[9]", "result": 0.428, "unit": "µg/mL"},
      {"measurement": "IC60, neutralizing activity (hMPV infection of LLC-MK2 cells; GraphPad Prism 6)", "setting": "[10]", "result": 0.247, "unit": "µg/mL"},
      {"measurement": "IC90, neutralizing activity (hMPV infection of LLC-MK2 cells; GraphPad Prism 6)", "setting": "[11]", "result": 3, "unit": "µg/mL"},
      {"measurement": "IC90, neutralizing activity (hMPV infection of LLC-MK2 cells; GraphPad Prism 6)", "setting": "[12]", "result": 0.828, "unit": "µg/mL"},
      {"measurement": "IC90, neutralizing activity (hMPV infection of LLC-MK2 cells; GraphPad Prism 6)", "setting": "[13]", "result": 1.03, "unit": "µg/mL"},
      {"measurement": "IC90, neutralizing activity (hMPV infection of LLC-MK2 cells; GraphPad Prism 6)", "setting": "[14]", "result": 0.8, "unit": "µg/mL"},
      {"measurement": "IC50, cell-to-cell spread inhibitory activity (LLC-MK2 cells stably expressing TMPRSS2)", "setting": "[15]", "result": 0.054, "unit": "µg/mL"},
      {"measurement": "IC90, cell-to-cell spread inhibitory activity (LLC-MK2 cells stably expressing TMPRSS2)", "setting": "[15]", "result": 0.132, "unit": "µg/mL"},
      {"measurement": "Kd", "setting": "[16]", "result": 1.62, "unit": "nM"},
      {"measurement": "koff", "setting": "[16]", "result": 0.000408, "unit": "s⁻¹"},
      {"measurement": "kon", "setting": "[16]", "result": 252000, "unit": "M⁻¹ s⁻¹"}
    ]}
  ]
}
